Test results as given in patent US20190015518A1, “DRUG DELIVERY COMPOSITIONS AND METHODS” (priority 2016, published 2019).
Where “and” joins values, the source holds several entries; their conditions need not be identical. Equal values may be shown once.

Tests used:
[1] = tested on: MDA-1986 (human head and neck squamous cell carcinoma) cells; assay: Anti-proliferative activity (Resazurin Blue, 72 hours); type: cell-based; settings: listed as HA-Lys-Pt 75 kDa
Method: MDA-1986 (human head and neck squamous cell carcinoma), 4T1.2-neu (murine breast cancer cells), and A2058 (human melanoma) cells were maintained in Dulbecco's Modified Eagle Medium (DMEM, Corning, Manassas, Va.) with 4.5 g/L glucose, 4.5 g/L L-glutamine, and 10% fetal bovine serum in a humidified incubator at 37° C. and 5% CO2. Cells were seeded into 96-well plates (3,000 cells/well in 90 μL media) and allowed to attach overnight. […] Resazurin Blue (Acros Organics, Geel, Belgium) in PBS was added to each well (5-μM final concentration; 10-μL addition) and incubated at 37° C. for 4 hours. Fluorescence (λex 550 nm, λem 605 nm) was quantified with a SpectraMax Gemini XS plate-reader (Molecular Devices, Sunnyvale, Calif.). The relative growth of cells incubated with each compound concentration was normalized to vehicle-treated controls (100% proliferation). Data from at least three separate experiments performed in duplicate was analyzed using non-linear regression (GraphPad Prism 5.0) to generate IC50 values.

[2] = Hematology of a healthy dog given 1.5 mg/kg on day 1 and 2.0 mg/kg on day 70, sub-mucosa; type: in vivo
Method: Before each dose, the dog was examined by clinical chemistry, hematology, and urinalysis. Additional examinations of clinical chemistry and hematology were performed on days 7, 14, and 42 after the first dose. Additional tests of urinalysis were performed on days 7 and 14 after the first dose. The potential drug-induced toxicities were monitored for 56 days after the second dose. Specifically, clinical chemistry and urinalysis were performed on days 7, 14, 21, and 56, and hematology was performed on days 7, 14, and 56 after the second dose to evaluate the tolerability and toxicity of the formulation.
Hematology examinations were performed at pre- and post-dose for both injections. The injections were given via the sub-mucosa in the mouth.

[3] = Viscosity reduction by excipients (rheometer); type: physicochemical
Method: The viscosity of 29 kDa HA (60 mg/mL), 33HA-Lys (33 kDa HA with linker, 8 mg/mL on HA basis), and 33HA-Lys-Pt (41.7 mg/mL on HA basis) with increasing concentration of mannitol (0, 0.1, 0.5 and 1 M) were measured using a rheometer at 37° C.
The solutions were incubated in the dark for 20 hours using a CLAY ADAMS® Brand Nutator. After 20 hours, the pH of the solutions were adjusted to pH 6.0 using 1N NaOH. A Brookfield DVIII Ultra Programmable Rheometer was used to measure the viscosity of three 500-μL samples of each solution. Measurements were taken for each at three different RPMs, where the torque ranged from 10-100%. Values for viscosity were not recorded until at least 30 seconds after the motor was started, after the torque readings were stabilized.
The solutions were incubated in the dark for 20 hours using a CLAY ADAMS® Brand Nutator. After 20 hours, the pH of the solutions were adjusted to pH 5.0 or 6.0 using 1N NaOH. A Brookfield DVIII Ultra Programmable Rheometer was used to measure the viscosity of three 500-μL samples of each solution. Measurements were taken for each at three different RPMs, where the torque ranged from 10-100%. Values for viscosity were not recorded until at least 30 seconds after the motor was started, after the torque readings were stabilized.

## HA-cis-[Pt(NH3)2(N^α-Acetyl-L-Lysine)] [75HA-Lys-Pt]
[1]; mean ± S.E.M., cisplatin basis
  IC50: 39.8 ± 4.4 µM
[1]; text b180
  IC50: ~21 µM
[2]; 2 mg/kg, 7 days after
  Differential white blood cell count, % BASO: 0.9%
  Differential white blood cell count, % EOS: 1.9%
  Differential white blood cell count, % LUC: 0.8%
  Differential white blood cell count, % LYMPH: 29%
  Differential white blood cell count, % MONO: 7.5%
  Differential white blood cell count, % NEUT: 60%
  Hematocrit: 38%
  Hemoglobin: 12.7 g/dL
  Hemoglobin distribution width: 1.84 g/dL
  Mean corpuscular (cell) hemoglobin: 21.9 pg
  Mean corpuscular (cell) hemoglobin concentration: 33.4 g/dL
  Mean corpuscular (cell) volume: 65.6 fL
  Platelet count: 36 10^3/μL
  Red blood cell count: 5.79 10^6/μL
  Red cell distribution width: 13.5%
  Reticulocyte count: 1.59%
  White blood cell count: 8.2 10^3/μL
[2]; 2 mg/kg, 14 days after
  Differential white blood cell count, % BASO: 0.5%
  Differential white blood cell count, % EOS: 3.4%
  Differential white blood cell count, % LUC: 0.6%
  Differential white blood cell count, % LYMPH: 28.5%
  Differential white blood cell count, % MONO: 4.3%
  Differential white blood cell count, % NEUT: 62.7%
  Hematocrit: 35.6%
  Hemoglobin: 11.8 g/dL
  Hemoglobin distribution width: 2.33 g/dL
  Mean corpuscular (cell) hemoglobin: 21.6 pg
  Mean corpuscular (cell) hemoglobin concentration: 33.1 g/dL
  Mean corpuscular (cell) volume: 65.2 fL
  Platelet count: 232 10^3/μL
  Red blood cell count: 5.47 10^6/μL
  Red cell distribution width: 14.2%
  Reticulocyte count: 3.2%
  White blood cell count: 10.43 10^3/μL
[2]; 2 mg/kg, 56 days after
  Differential white blood cell count, % BASO: 0.7%
  Differential white blood cell count, % EOS: 4.3%
  Differential white blood cell count, % LUC: 0.5%
  Differential white blood cell count, % LYMPH: 26.6%
  Differential white blood cell count, % NEUT: 63.4%
  Hematocrit: 36.9%
  Hemoglobin: 12.1 g/dL
  Hemoglobin distribution width: 2.04 g/dL
  Mean corpuscular (cell) hemoglobin: 21.4 pg
  Mean corpuscular (cell) hemoglobin concentration: 32.8 g/dL
  Mean corpuscular (cell) volume: 65.4 fL
  Red blood cell count: 5.64 10^6/μL
  Red cell distribution width: 13.7%
  Reticulocyte count: 1.3%
  White blood cell count: 11.3 10^3/μL
[2]; […], 7 days after
  Differential white blood cell count, % BASO: 0.7%
  Differential white blood cell count, % EOS: 2.0%
  Differential white blood cell count, % LUC: 0.6%
  Differential white blood cell count, % LYMPH: 37.6%
  Differential white blood cell count, % NEUT: 55.4%
  Hematocrit: 37.8%
  Hemoglobin: 12.7 g/dL
  Hemoglobin distribution width: 2.08 g/dL
  Mean corpuscular (cell) hemoglobin: 23.0 pg
  Mean corpuscular (cell) hemoglobin concentration: 33.6 g/dL
  Mean corpuscular (cell) volume: 68.4 fL
  Platelets (footnote a): ^aPlatelets appear adequate. Platelet clumps observed, number not reported.
  Red blood cell count: 5.53 10^6/μL
  Red cell distribution width: 13.3%
  Reticulocyte count: 1.40%
  White blood cell count: 7.69 10^3/μL
[2]; […], 14 days
  Differential white blood cell count, % BASO: 0.7%
  Differential white blood cell count, % EOS: 2.0%
  Differential white blood cell count, % LUC: 0.6%
  Differential white blood cell count, % LYMPH: 37.6%
  Differential white blood cell count, % NEUT: 55.4%
  Hematocrit: 38.2%
  Hemoglobin: 12.6 g/dL
  Hemoglobin distribution width: 2.29 g/dL
  Mean corpuscular (cell) hemoglobin: 22.6 pg
  Mean corpuscular (cell) hemoglobin concentration: 33.0 g/dL
  Mean corpuscular (cell) volume: 68.7 fL
  Platelet count: 307 10^3/μL
  Red blood cell count: 5.56 10^6/μL
  Red cell distribution width: 13.7%
  Reticulocyte count: 1.84%
  White blood cell count: 12.91 10^3/μL
[2]; […], 42 days
  Differential white blood cell count, % BASO: 1.4%
  Differential white blood cell count, % EOS: 2.0%
  Differential white blood cell count, % LUC: 0.8%
  Differential white blood cell count, % LYMPH: 37.6%
  Differential white blood cell count, % MONO: 5.1%
  Differential white blood cell count, % NEUT: 53.1%
  Hematocrit: 46.4%
  Hemoglobin: 15.3 g/dL
  Hemoglobin distribution width: 1.71 g/dL
  Mean corpuscular (cell) hemoglobin: 22.4 pg
  Mean corpuscular (cell) hemoglobin concentration: 33.0 g/dL
  Mean corpuscular (cell) volume: 67.9 fL
  Platelet count: 307 10^3/μL
  Red blood cell count: 6.83 10^6/μL
  Red cell distribution width: 12.4%
  White blood cell count: 10.82 10^3/μL
[3]; 12 mM CaAc2, pH 5.0
  percent reduction of viscosity: 25.1-78.0%
[3]; 12 mM CaAc2, pH 6.0
  percent reduction of viscosity: 21.4-81.0%
[3]; 12 mM NaCl, pH 5.0
  percent reduction of viscosity: 36.6-83.2%
[3]; 12 mM calcium lactate, pH 5.0
  percent reduction of viscosity: 23.0-71.8%
[3]; 12 mM calcium lactate, pH 6.0
  percent reduction of viscosity: 24.3-80.9%
[3]; 12 mM sodium acetate and trehalose 15% wt, pH 5.0, two batches
  percent reduction of viscosity: 54.1% and 84.3%
[3]; 12 mM sodium acetate, pH 5.0
  percent reduction of viscosity: 14.5-89.2%
[3]; 12 mM sodium carbonate and trehalose 15% wt, pH 5.0
  percent reduction of viscosity: 48.5-99.0%
[3]; 12 mM sodium carbonate, pH 5.0
  percent reduction of viscosity: 60.6-99.2%
[3]; 12 mM sodium citrate and trehalose 15% wt, pH 5.0
  percent reduction of viscosity: 15.6-95.4%
[3]; 12 mM sodium citrate, pH 5.0
  percent reduction of viscosity: 38.4-97.2%
[3]; CaCl2-containing PBS buffer, pH 6.0, three batches
  percent reduction of viscosity: 55.2-88.6%
[3]; Sodium Chelex 100, pH 5.0, two batches
  percent reduction of viscosity: 82.0% and 91.7%
[3]; buffer-free CaCl2, pH 5.0, three batches
  percent reduction of viscosity: 32.1-76.6%
[3]; buffer-free CaCl2, pH 6.0, three batches
  percent reduction of viscosity: 26.6-77.0%
